Measured values reported in US7947468B2, “Methods” (Medical Research Council, priority 2007, dated 2011).

Key:
[1] = substrate: CC[C@H](C)[C@H](NC(=O)[C@H](CCC(N)=O)NC(=O)[C@H](CCCNC(=N)N)NC(=O)[C@H](CC(C)C)NC(=O)[C@@H](NC(=O)[C@H](CCCCN)NC(=O)[C@H](Cc1ccc(O)cc1)NC(=O)[C@H](CCCCN)NC(=O)[C@H](CC(=O)O)NC(=O)[C@H](CCCNC(=N)N)NC(=O)CNC(=O)[C@H](CC(C)C)NC(=O)[C@@H](N)CCCNC(=N)N)[C@@H](C)O)C(=O)N[C@@H](CCCNC(=N)N)C(=O)N[C@@H](CCC(N)=O)C(=O)O; experiment: Assay of LRRK2 using LRRKtide as substrate (non-mutated enzyme); format: biochemical, human; conditions: other: non-mutated GST-LRRK2[1326-2527], varying LRRKtide, 0.1 mM ATP, 30 min 30° C.
Experimental: (§1) Assay of LRRK2 using LRRKtide as substrate. Assays were set up in a total volume of 50 μl of Buffer A containing 0.5-0.7 μg of either wild type or mutant forms LRRK2, 10 mM MgCl2 and 0.1 mM [γ^32P]-ATP (300 cpm/pmol) in the presence of 300 μM or the indicated concentration of LRRKtide (RLGRDKYKTLRQIRQ; SEQ ID NO:1) peptide substrate. After incubation for 30 min at 30° C., reactions were terminated by applying 40 μl of the reaction mixture onto P81 phosphocellulose paper and phosphorylation of LRRKtide was quantified following washing the P81 phosphocellulose in 50 mM phosphoric acid and Cherenkov counting. One Unit (U) of LRRK2 activity was defined as the amount of enzyme that catalysed the incorporation of 1 nmol of ^32P into LRRKtide. Km and Vmax parameters were determined by performing the assay described above using varying concentration of LRRKtide. The Km and Vmax parameters were calculated using the Graph-Pad prism programme.

[2] = substrate: CC[C@H](C)[C@H](NC(=O)[C@H](CCC(N)=O)NC(=O)[C@H](CCCNC(=N)N)NC(=O)[C@H](CC(C)C)NC(=O)[C@@H](NC(=O)[C@H](CCCCN)NC(=O)[C@H](Cc1ccc(O)cc1)NC(=O)[C@H](CCCCN)NC(=O)[C@H](CC(=O)O)NC(=O)[C@H](CCCNC(=N)N)NC(=O)CNC(=O)[C@H](CC(C)C)NC(=O)[C@@H](N)CCCNC(=N)N)[C@@H](C)O)C(=O)N[C@@H](CCCNC(=N)N)C(=O)N[C@@H](CCC(N)=O)C(=O)O; experiment: Assay of LRRK2 using LRRKtide as substrate (G2019S mutant); format: biochemical, human; conditions: other: GST-LRRK2[1326-2527, G2019S], varying LRRKtide, 0.1 mM ATP, 30 min 30° C.
Experimental: as §1

B1: GST-LRRK2[1326-2527] (Homo sapiens) (protein)
chain: LKKAVPYNRMKLMIVGNTGSGKTTLLQQLMKTKKSDLGMQSATVGIDVKDWPIQIRDKRKRDLVLNVWDFAGREEFYSTHPHFMTQRALYLAVYDLSKGQAEVDAMKPWLFNIKARASSSPVILVGTHLDVSDEKQRKACMSKITKELLNKRGFPAIRDYHFVNATEESDALAKLRKTIINESLNFKIRDQLVVGQLIPDCYVELEKIILSERKNVPIEFPVIDRKRLLQLVRENQLQLDENELPHAVHFLNESGVLLHFQDPALQLSDLYFVEPKWLCKIMAQILTVKVEGCPKHPKGIISRRDVEKFLSKKRKFPKNYMSQYFKLLEKFQIALPIGEEYLLVPSSLSDHRPVIELPHCENSEIIIRLYEMPYFPMGFWSRLINRLLEISPYMLSGRERALRPNRMYWRQGIYLNWSPEAYCLVGSEVLDNHPESFLKITVPSCRKGCILLGQVVDHIDSLMEEWFPGLLEIDICGEGETLLKKWALYSFNDGEEHQKILLDDLMKKAEEGDLLVNPDQPRLTIPISQIAPDLILADLPRNIMLNNDELEFEQAPEFLLGDGSFGSVYRAAYEGEEVAVKIFNKHTSLRLLRQELVVLCHLHHPSLISLLAAGIRPRMLVMELASKGSLDRLLQQDKASLTRTLQHRIALHVADGLRYLHSAMIIYRDLKPHNVLLFTLYPNAAIIAKIADYGIAQYCCRMGIKTSEGTPGFRAPEVARGNVIYNQQADVYSFGLLLYDILTTGGRIVEGLKFPNEFDELEIQGKLPDPVKEYGCAPWPMVEKLIKQCLKENPQERPTSAQVFDILNSAELVCLTRRILLPKNVIVECMVATHHNSRNASIWLGCGHTDRGQLSFLDLNTEGYTSEEVADSRILCLALVHLPVEKESWIVSGTQSGTLLVINTEDGKKRHTLEKMTDSVTCLYCNSFSKQSKQKNFLLVGTADGKLAIFEDKTVKLKGAAPLKILNIGNVSTPLMCLSESTNSTERNVMWGGCGTKIFSFSNDFTIQKLIETRTSQLFSYAAFSDSNIITVVVDTALYIAKQNSPVVEVWDKKTEKLCGLIDCVHFLREVMVKENKESKHKMSYSGRVKTLCLQKNTALWIGTGGGHILLLDLSTRRLIRVIYNFCNSVRVMMTAQLGSLKNVMLVLGYNRKNTEGTQKQKEIQSCLTVWDINLPHEVQNLEKHIEVRKELAEKMRRTSVE
notes: phosphorylated by both non-mutated GST-LRRK2[1326-2527] and GST-LRRK2[1326-2527, G2019S]; made in house; host or cells: HEK 293 cells, pEBG-2T vector
Km [1]: 200 µM

B2: GST-LRRK2[1326-2527, G2019S] (Homo sapiens; G2019S) (protein)
chain: LKKAVPYNRMKLMIVGNTGSGKTTLLQQLMKTKKSDLGMQSATVGIDVKDWPIQIRDKRKRDLVLNVWDFAGREEFYSTHPHFMTQRALYLAVYDLSKGQAEVDAMKPWLFNIKARASSSPVILVGTHLDVSDEKQRKACMSKITKELLNKRGFPAIRDYHFVNATEESDALAKLRKTIINESLNFKIRDQLVVGQLIPDCYVELEKIILSERKNVPIEFPVIDRKRLLQLVRENQLQLDENELPHAVHFLNESGVLLHFQDPALQLSDLYFVEPKWLCKIMAQILTVKVEGCPKHPKGIISRRDVEKFLSKKRKFPKNYMSQYFKLLEKFQIALPIGEEYLLVPSSLSDHRPVIELPHCENSEIIIRLYEMPYFPMGFWSRLINRLLEISPYMLSGRERALRPNRMYWRQGIYLNWSPEAYCLVGSEVLDNHPESFLKITVPSCRKGCILLGQVVDHIDSLMEEWFPGLLEIDICGEGETLLKKWALYSFNDGEEHQKILLDDLMKKAEEGDLLVNPDQPRLTIPISQIAPDLILADLPRNIMLNNDELEFEQAPEFLLGDGSFGSVYRAAYEGEEVAVKIFNKHTSLRLLRQELVVLCHLHHPSLISLLAAGIRPRMLVMELASKGSLDRLLQQDKASLTRTLQHRIALHVADGLRYLHSAMIIYRDLKPHNVLLFTLYPNAAIIAKIADYSIAQYCCRMGIKTSEGTPGFRAPEVARGNVIYNQQADVYSFGLLLYDILTTGGRIVEGLKFPNEFDELEIQGKLPDPVKEYGCAPWPMVEKLIKQCLKENPQERPTSAQVFDILNSAELVCLTRRILLPKNVIVECMVATHHNSRNASIWLGCGHTDRGQLSFLDLNTEGYTSEEVADSRILCLALVHLPVEKESWIVSGTQSGTLLVINTEDGKKRHTLEKMTDSVTCLYCNSFSKQSKQKNFLLVGTADGKLAIFEDKTVKLKGAAPLKILNIGNVSTPLMCLSESTNSTERNVMWGGCGTKIFSFSNDFTIQKLIETRTSQLFSYAAFSDSNIITVVVDTALYIAKQNSPVVEVWDKKTEKLCGLIDCVHFLREVMVKENKESKHKMSYSGRVKTLCLQKNTALWIGTGGGHILLLDLSTRRLIRVIYNFCNSVRVMMTAQLGSLKNVMLVLGYNRKNTEGTQKQKEIQSCLTVWDINLPHEVQNLEKHIEVRKELAEKMRRTSVE
notes: made in house; host or cells: HEK 293 cells, pEBG-2T vector
Km [2]: 200 µM
Vmax [2]: 10 U/mg
